Measurements: publication PMC6582314, “Ligands Exert Biased Activity to Regulate Sigma 1 Receptor Interactions With Cationic TRPA1, TRPV1, and TRPM8 Channels” (Frontiers in Pharmacology, 2019)
One block for each binder: values may come before it.

Legend:
Settings in all cases: both partners purified
[1] = biological target: T1, TRPA1 N-terminal cytosolic region (aa 1-721), GST-tagged (mouse, UniProt Q8BLA8 1-721); test: pull-down; TRP sequence (100 nM) covalently attached to NHS-activated Sepharose 4FF; prey 200 nM; 200 µL 50 mM Tris-HCl pH 7.5, 0.2% CHAPS, with 3 mM CaCl2; 30 min at RT, three washes; Western blot
T1 construct: transient receptor potential ankyrin member 1, mouse, NP_808449, residues 1-721; Vector carries GST/HaloTag and a TEV site; also called TRPA1 N-terminus; TRPA1 N-terminal domain; source: E. coli BL21 (KRX), purified (GStrap FF or HaloLink Resin); not shown: GST, N-terminal, kept

[2] = biological target: T2, TRPM8 N-terminal cytosolic region (aa 1-639), GST-tagged (mouse, UniProt Q8R4D5 1-639); test: as above
T2 construct: transient receptor potential melastatin member 8, mouse, NP_599013, residues 1-639; also called TRPM8 N-terminus; source: E. coli BL21 (KRX), purified (GStrap FF or HaloLink Resin); not shown: GST, N-terminal, kept

[3] = biological target: T1, TRPA1 N-terminal cytosolic region (aa …); test: pull-down; competition: immobilised TRP sequence with CaM or HINT1 and increasing concentrations of σ1R (up to 200 nM), 3 mM CaCl2; bound CaM or HINT1 by Western blot, relative to no σ1R

binding result [1]: binds | binding result [2]: binds
B1: sigma 1 receptor (σ1R), full-length murine, GST-free (natural protein, mouse, UniProt O55242 1-223, looked up)
chain: MPWAAGRRWAWITLILTIIAVLIQAAWLWLGTQNFVFSREEIAQLARQYAGLDHELAFSRLIVELRRLHPGHVLPDEELQWVFVNAGGWMGAMCILHASLSEYVLLFGTALGSHGHSGRYWAEISDTIISGTFHQWKEGTTKSEVFYPGETVVHGPGEATALEWGPNTWMVEYGRGVIPSTLFFALADTFFSTQDYLTLFYTLRAYARGLRLELTTYLFGQDS
notes: sigma 1 receptor, mouse, GenBank AF004927, coding region of the full-length protein; 223 amino acids; also called type 1 sigma receptor; source: E. coli BL21 (KRX), purified (GStrap FF or HaloLink Resin, cleaved with ProTEV protease, ion exchange); not shown: GST, N-terminal, cleaved

binding result [2]: binds | binding result [3]: binds
B2: histidine triad nucleotide-binding protein 1 (HINT1), murine, GST-free (natural protein, mouse, UniProt P70349 1-126, looked up)
chain: MADEIAKAQVAQPGGDTIFGKIIRKEIPAKIIFEDDRCLAFHDISPQAPTHFLVIPKKHISQISVADDDDESLLGHLMIVGKKCAADLGLKRGYRMVVNEGADGGQSVYHIHLHVLGGRQMNWPPG
notes: source: E. coli BL21 (KRX), purified (GStrap FF or HaloLink Resin, cleaved with ProTEV protease, ion exchange); not shown: GST, N-terminal, cleaved
